Measurements reported in the Immune Epitope Database (IEDB).

What was measured:
HLA-A*01:01 = assay: IEDB peptide-MHC binding, purified MHC/competitive/radioactivity; filed as Kd, often an IC50 or EC50 that approximates it; ≥ and ≤ were set here for values at or beyond the usual limits of such assays
HLA-A*26:01 = assay: as above
HLA-A*30:01 = assay: as above
HLA-A*30:02 = assay: as above
HLA-A*29:02 = assay: as above
HLA-A*32:01 = assay: as above
HLA-B*07:02 = assay: as above; conditions: source organism: Dengue virus 2 Jamaica/1409/1983
HLA-B*51:01 = assay: as above; conditions: source organism: Dengue virus 2 Jamaica/1409/1983
HLA-A*24:02 [1] = assay: as above; conditions: source organism: SARS coronavirus Tor2
HLA-A*23:01 = assay: as above; conditions: source organism: SARS coronavirus Tor2
HLA-B*08:01 = assay: as above; conditions: source organism: Vaccinia virus WR
HLA-A*24:02 [2] = assay: IEDB peptide-MHC binding, purified MHC/competitive/fluorescence; ≥ and ≤ were set here for values at or beyond the usual limits of such assays; conditions: source organism: Vaccinia virus WR
HLA-A*02:01 = assay: as above; conditions: source organism: Vaccinia virus WR
[3] = source organism: Mammarenavirus guanaritoense
[4] = source organism: SARS coronavirus Tor2
[5] = source organism: Mammarenavirus choriomeningitidis

Q: How did the Kd (HLA-A*01:01; [3]) turn out when SSSPTILDNY was run?
A: The Kd was 0.0226 µM.

Q: What about the Kd (HLA-A*26:01; [3]) of the same sequence?
A: The Kd was 17.8 µM.

Q: What about the Kd (HLA-A*30:01; [3]) of the same sequence?
A: Its Kd is no less than 21 µM.

Q: And the Kd (HLA-A*30:02; [3])?
A: Its Kd is 0.0425 µM.

Q: What about the Kd (HLA-A*29:02; [3]) of the same sequence?
A: The Kd was 0.099 µM.

Q: And the Kd (HLA-A*32:01; [3])?
A: The Kd was no less than 69.9 µM.

Q: What does the source list for QPHWIAASII?
A: Kd (HLA-B*07:02): 0.0475 µM; Kd (HLA-B*51:01): 0.468 µM

Q: For AYSNRNRFL, which Kd (HLA-A*24:02 [1]) is on record?
A: Its Kd is 0.0922 µM.

Q: And the Kd (HLA-A*23:01)?
A: Its Kd is 0.658 µM.

Q: What about the Kd (HLA-A*01:01; [4]) of the same sequence?
A: The Kd was no less than 78.1 µM.

Q: And the Kd (HLA-A*26:01; [4])?
A: Its Kd is no less than 77.9 µM.

Q: What about the Kd (HLA-A*30:02; [4]) of the same sequence?
A: Its Kd is no less than 54.7 µM.

Q: What about the Kd (HLA-A*29:02; [4]) of the same sequence?
A: The Kd was 6.64 µM.

Q: Which Kd (HLA-A*01:01; [5]) does the source give for DTSNTGRAEL here?
A: The Kd was no less than 50.2 µM.

Q: And the Kd (HLA-A*26:01; [5])?
A: Its Kd is 16 µM.

Q: What about the Kd (HLA-A*30:01; [5]) of the same sequence?
A: Its Kd is no less than 24.5 µM.

Q: And the Kd (HLA-A*30:02; [5])?
A: The Kd was 7.18 µM.

Q: What about the Kd (HLA-A*29:02; [5]) of the same sequence?
A: The Kd was no less than 71.4 µM.

Q: And the Kd (HLA-A*32:01; [5])?
A: The Kd was no less than 69.9 µM.

Q: With RTYCIEASI as the sequence, how does the Kd (HLA-A*32:01; source organism: Dengue virus 4 Philippines/H241/1956) read?
A: Its Kd is 0.0192 µM.

Q: Which Kd (HLA-A*32:01; source organism: Vaccinia virus WR) does the source give for KTWMINIMI here?
A: The Kd was no less than 77.8 µM.

Q: For MYASALVLL, which Kd (HLA-A*24:02 [1]) is on record?
A: The Kd was no less than 65.3 µM.

Q: What about the Kd (HLA-A*23:01) of the same sequence?
A: The Kd was no less than 46.4 µM.

Q: And the Kd (HLA-A*01:01; [4])?
A: Its Kd is no less than 66 µM.

Q: What about the Kd (HLA-A*26:01; [4]) of the same sequence?
A: The Kd was 4.62 µM.

Q: And the Kd (HLA-A*30:02; [4])?
A: Its Kd is no less than 33.5 µM.

Q: What about the Kd (HLA-A*29:02; [4]) of the same sequence?
A: Its Kd is no less than 22.5 µM.

Q: For NVEYRFLVI, which Kd (HLA-B*08:01) is on record?
A: Its Kd is 0.235 µM.

Q: What about the IC50 (HLA-A*24:02 [2]) of the same sequence?
A: The IC50 was 13.7 µM.

Q: What about the IC50 (HLA-A*02:01) of the same sequence?
A: Its IC50 is no less than 144 µM.

Q: With FSAVGNICY as the sequence, how does the Kd (HLA-A*24:02 [1]) read?
A: The Kd was no less than 51.6 µM.

Q: And the Kd (HLA-A*23:01)?
A: Its Kd is no less than 77.8 µM.

Q: And the Kd (HLA-A*01:01; [4])?
A: The Kd was 0.00034 µM.

Q: What about the Kd (HLA-A*26:01; [4]) of the same sequence?
A: The Kd was 0.409 µM.

Q: And the Kd (HLA-A*30:02; [4])?
A: Its Kd is 0.0285 µM.

Q: And the Kd (HLA-A*29:02; [4])?
A: The Kd was 0.00797 µM.

Q: PTMEIEDQEY was tested. Which Kd (HLA-A*01:01; [3]) did it give?
A: The Kd was 0.0172 µM.

Q: And the Kd (HLA-A*26:01; [3])?
A: The Kd was 1.14 µM.

Q: What about the Kd (HLA-A*30:01; [3]) of the same sequence?
A: Its Kd is no less than 70.4 µM.

Q: And the Kd (HLA-A*30:02; [3])?
A: Its Kd is 8.84 µM.

Q: And the Kd (HLA-A*29:02; [3])?
A: Its Kd is 11.3 µM.

Q: And the Kd (HLA-A*32:01; [3])?
A: Its Kd is no less than 49.8 µM.

Q: LFARTRSMW was tested. Which Kd (HLA-A*24:02 [1]) did it give?
A: Its Kd is 0.146 µM.

Q: And the Kd (HLA-A*23:01)?
A: Its Kd is 0.488 µM.

Q: And the Kd (HLA-A*01:01; [4])?
A: Its Kd is no less than 78.1 µM.

Q: What about the Kd (HLA-A*26:01; [4]) of the same sequence?
A: Its Kd is no less than 77.9 µM.

Q: What about the Kd (HLA-A*30:02; [4]) of the same sequence?
A: Its Kd is no less than 83.3 µM.

Q: What about the Kd (HLA-A*29:02; [4]) of the same sequence?
A: Its Kd is 10.2 µM.
